Data published in PMC12857291.

Assays:
MeCP2-MBD WT [1] = molecular target: T1, MeCP2-MBD WT (UniProt P51608 80-164); assay: EMSA; no peptide; EMSA: 0.5 uM DNA, 0-20 uM protein, 50 mM HEPES pH 7.5, 100 mM NaCl, 1 h at 4 C; 6% native PAGE, 1X TBE, 80 V, 4 C; SYBR Gold; n=3; settings: protein: recombinant; tags: C-terminal 6xHis; label: none (SYBR Gold stain); blunt
MeCP2-MBD WT [2] = molecular target: T1, MeCP2-MBD WT; assay: EMSA; 20 uM histone H3(15-36)K27me3 peptide; EMSA: 0.5 uM DNA, 0-20 uM protein, 50 mM HEPES pH 7.5, 100 mM NaCl, 1 h at 4 C; 6% native PAGE, 1X TBE, 80 V, 4 C; SYBR Gold; n=3; settings: protein: recombinant; tags: C-terminal 6xHis; label: none (SYBR Gold stain); blunt

T1 sequence (P51608 80-164): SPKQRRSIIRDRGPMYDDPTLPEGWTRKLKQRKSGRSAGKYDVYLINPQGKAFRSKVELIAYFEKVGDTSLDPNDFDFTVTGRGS

B1: BDNF promoter duplex mC/mC (dsDNA)
DNA 1: GCCCTGGAACGGAACTCTTCTGGCC
DNA 2: GGCCAGAAGAGTTCCGTTCCAGGGC
modifications: 5-methyl-dC at position 10 of the top strand and position 15 of the bottom strand (symmetric mCpG)
Kd (MeCP2-MBD WT [1]): 1200 ± 100 nM | Kd (MeCP2-MBD WT [2]): 1300 ± 100 nM
